Key:
[1] = molecular target: T1, hCDH17-his (full length extracellular domain of human CDH17, Q23-M787, his tag at the C-terminal) (human, UniProt Q12864 23-787); experiment: SPR (Biacore 8K), antibody captured on Protein A chip, hCDH17-his injected
T1 construct: Limits of the construct (UniProt Q12864, Q23-M787, C-terminal his tag); also called human CDH17-his protein; human CDH17 protein
T1 sequence: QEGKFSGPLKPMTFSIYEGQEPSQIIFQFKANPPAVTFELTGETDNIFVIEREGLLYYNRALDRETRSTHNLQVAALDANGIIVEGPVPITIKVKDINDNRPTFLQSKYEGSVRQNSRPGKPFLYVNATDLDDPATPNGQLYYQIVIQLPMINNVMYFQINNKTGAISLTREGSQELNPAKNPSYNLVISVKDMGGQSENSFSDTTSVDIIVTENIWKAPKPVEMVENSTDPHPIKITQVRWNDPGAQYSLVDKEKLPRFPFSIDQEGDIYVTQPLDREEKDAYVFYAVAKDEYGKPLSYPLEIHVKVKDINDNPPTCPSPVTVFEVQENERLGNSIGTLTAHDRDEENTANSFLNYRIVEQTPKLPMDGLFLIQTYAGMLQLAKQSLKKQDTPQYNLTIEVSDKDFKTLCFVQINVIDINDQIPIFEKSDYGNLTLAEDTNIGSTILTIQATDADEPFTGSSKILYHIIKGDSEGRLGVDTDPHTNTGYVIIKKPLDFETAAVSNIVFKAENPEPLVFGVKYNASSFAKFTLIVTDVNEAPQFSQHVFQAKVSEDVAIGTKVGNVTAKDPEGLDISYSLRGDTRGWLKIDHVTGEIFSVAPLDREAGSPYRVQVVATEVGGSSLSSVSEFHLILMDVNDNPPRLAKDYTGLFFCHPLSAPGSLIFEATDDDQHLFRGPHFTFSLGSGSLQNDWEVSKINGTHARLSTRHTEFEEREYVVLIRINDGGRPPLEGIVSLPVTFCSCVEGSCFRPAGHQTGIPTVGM

[2] = molecular target: T2, human CDH17, full length, expressed on cells (HEK293-hCDH17); AsPC-1, HCT-8, AGS, LoVo, KATO III, HT-29 tumor … (human, UniProt Q12864 23-832); experiment: flow cytometry, AsPC-1 cells
T2 construct: also called human CDH17 expressed on tumor cells
T2 sequence: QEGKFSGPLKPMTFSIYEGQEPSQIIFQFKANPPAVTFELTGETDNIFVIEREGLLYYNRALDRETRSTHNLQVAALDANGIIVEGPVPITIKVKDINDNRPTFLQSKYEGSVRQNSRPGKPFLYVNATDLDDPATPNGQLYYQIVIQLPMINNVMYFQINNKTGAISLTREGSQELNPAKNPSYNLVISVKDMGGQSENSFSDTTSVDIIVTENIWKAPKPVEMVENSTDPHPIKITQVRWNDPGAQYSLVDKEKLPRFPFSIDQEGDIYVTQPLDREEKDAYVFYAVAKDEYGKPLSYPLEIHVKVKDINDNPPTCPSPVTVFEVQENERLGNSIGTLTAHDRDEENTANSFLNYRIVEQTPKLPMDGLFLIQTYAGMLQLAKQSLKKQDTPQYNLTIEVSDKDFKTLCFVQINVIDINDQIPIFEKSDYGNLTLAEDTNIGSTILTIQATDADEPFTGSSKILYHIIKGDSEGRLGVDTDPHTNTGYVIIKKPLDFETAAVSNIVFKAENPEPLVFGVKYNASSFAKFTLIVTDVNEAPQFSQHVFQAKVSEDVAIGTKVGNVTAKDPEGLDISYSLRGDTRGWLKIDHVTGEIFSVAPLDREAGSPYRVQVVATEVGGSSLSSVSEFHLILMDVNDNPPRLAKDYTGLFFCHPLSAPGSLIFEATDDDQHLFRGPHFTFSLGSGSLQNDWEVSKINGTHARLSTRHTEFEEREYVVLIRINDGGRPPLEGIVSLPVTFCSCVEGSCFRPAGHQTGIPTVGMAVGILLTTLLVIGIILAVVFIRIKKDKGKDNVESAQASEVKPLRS

[3] = molecular target: T2, human CDH17, full length, expressed on …; experiment: flow cytometry, AsPC-1, AGS, KATO III and HT-29 cells

B1: 29H8D3-z9 (antibody, V domains shown)
VH: QVQLVQSGAEVKKPGASVKVSCKASGYTFTDHTIHWMRQAPGQGLEWIGYIYPRDGYTKYNEKFKDRATMTTDTSTSTAYMELRSLRSDDTAVYYCARFYYGYWYFDVWGQGTTVTVSS
VL: DIVMTQSPLSLPVTPGEPASISCRSSKSLLRSNGNTYLYWFLQKPGQSPQVLIYRMSNLASGVPDRFSGSGSGTDFTLKISRVEAEDVGVYYCMQHLEYPFTFGQGTKLEIK
notes: Humanized, human IgG1 constant region
binding result [1]: binds | binding result [2]: binds

B2: 29D2D7-z19p3-DXd (antibody, V domains shown)
VH: QVQLVQSGAEVKKPGASVKVSCKASGYTFTDYDMHWVKQAPGQGLEWIGGFDPESAGTVYNLRFKDKATLTADKSTSTAYMELRSLRSEDTAVYYCARKGYYSVSSPFTYWGQGTLVTVSS
VL: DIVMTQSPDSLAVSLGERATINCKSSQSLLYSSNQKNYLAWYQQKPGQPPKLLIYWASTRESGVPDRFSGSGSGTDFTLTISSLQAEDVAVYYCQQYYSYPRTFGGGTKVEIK
modifications: MC-GGFG-DXd (deruxtecan) conjugated to the antibody, DAR around 7.50-7.90; sites not given
notes: also called 29D2D7-z19-MC-GGFG-DXd
binding result [3]: binds

— EP4806514A2 (Lepu Biopharma Co., Ltd., dated 2025)
